This note sets out measurements from patent US20140335539A1.

One assay deals with p62(PB1)-p53. Put plainly: cell-based or functional assay.
The target of a further assay is p62(PB1)-FKBP12. Put plainly: cell-based or functional assay.

Substance AG-MDM2 gave an IC50 of Nutlin-3, total luminance of fluorescent foci per cell (stable CHO-K1 line) in the assay with p62(PB1)-p53 of 8.9 µM.
mTOR(FRB)-AG: the IC50 of FK506 in the presence of 20 nM rapamycin, total fluorescence intensity of fluorescent foci per cell (stable HeLaS3 line) in the assay with p62(PB1)-FKBP12 turned out to be 0.68 µM.
